Binding signal (% of ligTRE(s)6 crosslinking), binding result and binding signal data for 8 molecules are collected here from US5683985, “Oligonucleotide decoys and methods relating thereto” (The Salk Institute for Biological Studies).

The target of one data set is JUN (UniProt P05412). The following applies: PS at 6 linkages within the Sp1 recognition octamer; K2PtCl4 crosslinking, SDS gel.
Data set [1] deals with T1, CREB (CRE-BP) (UniProt P15337 P15337:1-327). Kind of data set: EMSA; 50 mM KCl, 15 mM Tris pH 7.5, room temperature. The following applies: chain copies: 2, label: 5'-32P. As to the method:
(§1) Binding of the ligated CRE and CRE(s)_6 sequences to the CREB protein was carried out as previously described [Dwarki et al., EMBO J. 9:225–232 (1990); chu and Orgel, Nucleic Acids Res. 19:6958 (1991)]. Approximately 0.015 pmole of the [^32P]-CRE sequences was added to ~200 ng of pure CREB protein in 10 µl of buffer containing 50 mM KCl, 15 mM Tris, (pH 7.5), 0.1 mM EDTA, 0.5 mM DTT, 180 ng acetylated BSA and 250 ng (poly[dI-dC].poly[dI-dC]) and then incubated at room temperature for 15–20 minutes. Binding was detected by gel shift assay on 6% non-denaturing gels using 40 mM Tris-borate at pH 8.2 as the electrophoresis buffer. Binding of the ligated CRE sequences to an aliquot of nuclear extract from PC12 cells (4 μg total protein) was carried out in the same way. Binding of TRE sequences to the JUN protein was carried out similarly in 10 μl of buffer containing 50 mM Tris (pH 7.9), 100 mM KCl, 1 mM EDTA, 1 mM DTT, 12.5 mM MgCl_2, 20% glycerol and 250 ng (poly[dI-dC]·poly[dI-dC]). Binding was detected by non-denaturing gel electrophoresis on 6% acrylamide, using 20 mM Tris-borate (pH 8.2) as electrophoresis buffer.

Data set [2] deals with T1, CREB (CRE-BP). The data set can be described thus: EMSA; bound more efficiently than the other oligomers; 50 mM KCl, pH 7.5. The following applies: chain copies: 2; label: 32P; closed circular dumbbell. As to the method: as §1
Background: Mobility shift assays separate free from complexed probe on a gel.

In data set [3] the target is T1, CREB (CRE-BP). Kind of data set: EMSA; PS does not diminish binding; K2PtCl4 crosslinking 40-50% of binding at 2.3 mM. The following applies: chain copies: 2; label: 32P; closed circular dumbbell. Here is the method:
(§2) Binding of the ligated CRE and CRE(s)_6 sequences to the CREB protein was carried out as previously described [Dwarki et al., EMBO J. 9:225–232 (1990); chu and Orgel, Nucleic Acids Res. 19:6958 (1991)]. Approximately 0.015 pmole of the [^32P]-CRE sequences was added to ~200 ng of pure CREB protein in 10 µl of buffer containing 50 mM KCl, 15 mM Tris, (pH 7.5), 0.1 mM EDTA, 0.5 mM DTT, 180 ng acetylated BSA and 250 ng (poly[dI-dC].poly[dI-dC]) and then incubated at room temperature for 15–20 minutes. Binding was detected by gel shift assay on 6% non-denaturing gels using 40 mM Tris-borate at pH 8.2 as the electrophoresis buffer. Binding of the ligated CRE sequences to an aliquot of nuclear extract from PC12 cells (4 μg total protein) was carried out in the same way. Binding of TRE sequences to the JUN protein was carried out similarly in 10 μl of buffer containing 50 mM Tris (pH 7.9), 100 mM KCl, 1 mM EDTA, 1 mM DTT, 12.5 mM MgCl_2, 20% glycerol and 250 ng (poly[dI-dC]·poly[dI-dC]). Binding was detected by non-denaturing gel electrophoresis on 6% acrylamide, using 20 mM Tris-borate (pH 8.2) as electrophoresis buffer. […]

The target of data set [4] is T1, CREB (CRE-BP). The data set can be described thus: EMSA; crosslinks with K2PtCl4 at ~40% of ligCRE(s)6 efficiency. Particulars: chain copies: 2; label: 32P; closed circular dumbbell. Here is the method:
For crosslinking of oligonucleotide to protein, approximately 0.015 pmole of the appropriate [^32P]-labelled dumbbell oligonucleotide was first incubated with 200 ng CREB or JUN protein in 10 μl of buffer containing 50 mM KCl, 15 mM Tris (pH 7.5), 0.1 mM EDTA, […], 180 ng acetylated BSA and 250 ng (poly[dI-dC]·poly[dI-dC]) as described above. After 15 minutes at room temperature, 1–3 μl of a freshly prepared solution containing the required amount of K_2PtCl_4 or transPt^II in buffer containing 1 mM phosphate (pH 7) and 0.1 mM EDTA was added to the reaction mixture. Incubation was continued at room temperature in the dark for 1 hour. 0.5 μl of a 5% solution of SDS was then added and the crosslinked product separated from non-crosslinked oligonucleotide on an 8% polyacrylamide gel using buffer containing 90 mM Tris-borate (pH 8.2) and 0.1% SDS (SDS gels disrupt noncovalently associated DNA-protein complexes).

The target of data set [5] is T1, CREB (CRE-BP). Kind of data set: EMSA; does not bind CREB; crosslinking <10% of CRE at 2 mM K2PtCl4, none at 0.3 mM. The following applies: chain copies: 2; label: 32P; closed circular dumbbell. Here is the method: as §2

A value given as a limit tells only on which side of the number the result lay.

T1 sequence (P15337 whole entry, one chain of several): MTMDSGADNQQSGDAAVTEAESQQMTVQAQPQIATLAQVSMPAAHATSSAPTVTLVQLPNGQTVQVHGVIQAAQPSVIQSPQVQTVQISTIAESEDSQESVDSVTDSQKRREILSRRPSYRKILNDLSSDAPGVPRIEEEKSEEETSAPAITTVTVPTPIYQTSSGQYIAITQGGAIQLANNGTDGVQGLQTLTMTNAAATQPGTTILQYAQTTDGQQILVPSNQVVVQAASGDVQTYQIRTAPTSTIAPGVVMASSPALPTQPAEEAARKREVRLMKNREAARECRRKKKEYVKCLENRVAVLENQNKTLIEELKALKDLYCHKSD
JUN, sequence (P05412 whole entry): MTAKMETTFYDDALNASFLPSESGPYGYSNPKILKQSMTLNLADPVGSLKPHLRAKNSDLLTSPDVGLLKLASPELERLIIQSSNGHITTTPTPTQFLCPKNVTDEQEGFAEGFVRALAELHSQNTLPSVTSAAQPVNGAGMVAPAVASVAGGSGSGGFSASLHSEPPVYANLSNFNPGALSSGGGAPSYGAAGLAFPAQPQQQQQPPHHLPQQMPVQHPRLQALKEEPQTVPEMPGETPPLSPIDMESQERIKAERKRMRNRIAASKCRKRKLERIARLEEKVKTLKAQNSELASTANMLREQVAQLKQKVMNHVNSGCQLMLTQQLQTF

In the data set with JUN, “CCTCTCGCTCGCCCCGCCCCGATCCTCTCGATCGGGGCGGGGCGAG [ligSp1(s)6 dumbbell]” returned a binding signal (% of ligTRE(s)6 crosslinking) of less than 10.

Turning to GTAACTCTCTTACCATGACGTCAATTTCTCTCAAATTGACGTCATG (structured_DNA) [CRE 46-mer nicked dumbbell], the binding result with CREB (CRE-BP) [1] (nicked dumbbell) is “binds”. For GTAACTCTCTTACCATGACGTCAATTTCTCTCAAATTGACGTCATG (structured_DNA) [ligCRE dumbbell], in the data set with CREB (CRE-BP) [2], the binding result is listed as “binds”. Turning to GTAACTCTCTTACCATGACGTCAATTTCTCTCAAATTGACGTCATG (structured_DNA, PS at 6 linkages within the octamer (T(s)GAC(s)GTC(s)A on both strands)) [ligCRE(s)6 dumbbell], in the data set with CREB (CRE-BP) [3], the binding result is “binds”. On to ACTCTCTGTGTCTGACTCATGCTCTCTCAGCATGAGTCAGACAC (structured_DNA, PS at 6 linkages within the recognition sequence) [ligTRE(s)6 dumbbell], for which the binding signal with CREB (CRE-BP) [4] is ~0.1 fold of ligCRE(s)6.

B1: CRE 18-mer duplex (dsDNA)
DNA 1: AAATTGACGTCATGGTAA
DNA 2: TTACCATGACGTCAATTT
Consider B1, for which the binding result in the data set with CREB (CRE-BP) [1] was “binds”.

AAATTGACGTCATGGTAACTCTCTTACCATGACGTCAATTT (structured_DNA) [CRE 41-mer hairpin]: in the data set with CREB (CRE-BP) [1] (hairpin with CTCTC loop), the binding result is “binds”.

With CCTCTCGCTCGCCCCGCCCCGATCCTCTCGATCGGGGCGGGGCGAG (structured_DNA, PS at 6 linkages within the Sp1 recognition octamer) [ligSp1(s)6 dumbbell], the binding result with CREB (CRE-BP) [5] is on record as “no binding”.
